# From patent US20230142800A1 (COMMISSARIAT A L ENERGIE ATOMIQUE ET AUX ENERGIES …, published 2023)
# Molecular target: T1, biotinylated TNF alpha (human (definition in paragraph 32)); the …, UniProt P01375 77-233, biotinylated (site not stated))
# T1 construct: Used for FACS sorting of yeast libraries and immobilised on streptavidin sensors for BLI; also called TNFα; Tumor Necrosis Factor Alpha
# Assay: yeast display FACS sorting on biotinylated TNF alpha, NGS enrichment, CDRH2-CDRH3 library
# T1 sequence (P01375 77-233 limits assumed): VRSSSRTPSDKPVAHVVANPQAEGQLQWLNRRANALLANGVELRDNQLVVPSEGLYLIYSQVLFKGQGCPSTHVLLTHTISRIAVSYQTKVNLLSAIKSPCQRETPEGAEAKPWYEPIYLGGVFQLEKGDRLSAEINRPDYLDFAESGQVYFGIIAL
row,Binder,Enrichment
1,"Mutant 3, Fab displayed on yeast (CDRH2-CDRH3 combinatorial library) (Fab, V domains shown, same variable domains as the soluble Mutant 3 Fab; see its note) VH: EVQLVESGGGLVQPGRSLRLSCAASGFTFDDYAMHWVRQAPGKGLEWVGAINWNGGHHDYADSVEGRFTISRDNAKNSLYLQMNSLRAEDTAVYYCAKTTYLPTASSLDYWGQGTLVTVSS VL: not shown",111000
2,"Mutant 2, Fab displayed on yeast (CDRH2-CDRH3 combinatorial library) (Fab, V domains shown, same variable domains as the soluble Mutant 2 Fab; see its note) VH: EVQLVESGGGLVQPGRSLRLSCAASGFTFDDYAMHWVRQAPGKGLEWVGTINWNGGHSDYADSVEGRFTISRDNAKNSLYLQMNSLRAEDTAVYYCAKTTYLPTASSLDYWGQGTLVTVSS VL: not shown",1.47e+06
3,"Mutant 5, Fab displayed on yeast (CDRH2-CDRH3 combinatorial library) (Fab, V domains shown, same variable domains as the soluble Mutant 5 Fab; see its note) VH: EVQLVESGGGLVQPGRSLRLSCAASGFTFDDYAMHWVRQAPGKGLEWVGDISWNGGHTDYADSVEGRFTISRDNAKNSLYLQMNSLRAEDTAVYYCAKTTYLPTASSLDYWGQGTLVTVSS VL: not shown",512000
4,"Mutant 1, Fab displayed on yeast (CDRH2-CDRH3 combinatorial library) (Fab, V domains shown, same variable domains as the soluble Mutant 1 Fab; see its note) VH: EVQLVESGGGLVQPGRSLRLSCAASGFTFDDYAMHWVRQAPGKGLEWVGAINWNGGHRDYADSVEGRFTISRDNAKNSLYLQMNSLRAEDTAVYYCAKSQYLPTASSLDYWGQGTLVTVSS VL: not shown",217000
5,"Mutant 4, Fab displayed on yeast (CDRH2-CDRH3 combinatorial library) (Fab, V domains shown, same variable domains as the soluble Mutant 4 Fab; see its note) VH: EVQLVESGGGLVQPGRSLRLSCAASGFTFDDYAMHWVRQAPGKGLEWVGAINWNSGHHDYADSVEGRFTISRDNAKNSLYLQMNSLRAEDTAVYYCAKTTYLPTASSLDYWGQGTLVTVSS VL: not shown",186000

# Second part, the binder after the results:
row,Enrichment,Binder
1,238000,"Mutant 6, Fab displayed on yeast (CDRH2-CDRH3 combinatorial library) (Fab, V domains shown, same variable domains as the soluble Mutant 6 Fab; see its note) VH: EVQLVESGGGLVQPGRSLRLSCAASGFTFDDYAMHWVRQAPGKGLEWVGAINWNGGHRDYADSVEGRFTISRDNAKNSLYLQMNSLRAEDTAVYYCAKTNYLPTASSLDYWGQGTLVTVSS VL: not shown"
2,59400,"Mutant 7, Fab displayed on yeast (CDRH2-CDRH3 combinatorial library) (Fab, V domains shown, same variable domains as the soluble Mutant 7 Fab; see its note) VH: EVQLVESGGGLVQPGRSLRLSCAASGFTFDDYAMHWVRQAPGKGLEWVGAINWNGGHRDYADSVEGRFTISRDNAKNSLYLQMNSLRAEDTAVYYCAKAHYLPTASSLDYWGQGTLVTVSS VL: not shown"
3,238000,"Mutant 8, Fab displayed on yeast (CDRH2-CDRH3 combinatorial library) (Fab, V domains shown, same variable domains as the soluble Mutant 8 Fab; see its note) VH: EVQLVESGGGLVQPGRSLRLSCAASGFTFDDYAMHWVRQAPGKGLEWVGAINWNGGHRDYADSVEGRFTISRDNAKNSLYLQMNSLRAEDTALYYCAKTTYLPTASSLDYWGQGTLVTVSS VL: not shown"

# Molecular target: T1, biotinylated TNF alpha
# Assay: yeast display FACS sorting on biotinylated TNF alpha, NGS enrichment, CDRH2 library
row,Enrichment,Binder
1,207,"CDRH2 library mutant SAISWNGGHR (Fab, V domains shown) VH: EVQLVESGGGLVQPGRSLRLSCAASGFTFDDYAMHWVRQAPGKGLEWVSAISWNGGHRDYADSVEGRFTISRDNAKNSLYLQMNSLRAEDTAVYYCAKVSYLSTASSLDYWGQGTLVTVSS VL: not shown"
2,128,"CDRH2 library mutant SSIAWNGGHW (Fab, V domains shown) VH: EVQLVESGGGLVQPGRSLRLSCAASGFTFDDYAMHWVRQAPGKGLEWVSSIAWNGGHWDYADSVEGRFTISRDNAKNSLYLQMNSLRAEDTAVYYCAKVSYLSTASSLDYWGQGTLVTVSS VL: not shown"
3,100,"CDRH2 library mutant SAISWNGGHT (Fab, V domains shown) VH: EVQLVESGGGLVQPGRSLRLSCAASGFTFDDYAMHWVRQAPGKGLEWVSAISWNGGHTDYADSVEGRFTISRDNAKNSLYLQMNSLRAEDTAVYYCAKVSYLSTASSLDYWGQGTLVTVSS VL: not shown"

# Molecular target: T1, biotinylated TNF alpha
# Assay: BLI (Octet Red96), Fab in solution, biotinylated TNF alpha on streptavidin sensors, 1:1 global fit
# Experimental: After saturation the sensors in a blocking solution containing 10 μg/mL biotin (Sigma-Aldrich, Saint-Louis, United States), the association and dissociation are measured over 20 and 40 minutes respectively. […] During the analysis, the reference is subtracted from each curve and a 1:1 global Langmuir model is applied in order to get the affinity parameters.
row,Kd,Binder
1,9 pM,"Mutant 5, Fab format (Fab, V domains shown, Soluble Fab as for Mutant 1; also called mutation 5) VH: EVQLVESGGGLVQPGRSLRLSCAASGFTFDDYAMHWVRQAPGKGLEWVGDISWNGGHTDYADSVEGRFTISRDNAKNSLYLQMNSLRAEDTAVYYCAKTTYLPTASSLDYWGQGTLVTVSS VL: not shown"
